Publication PMC7319778

Biological target: human toll-like receptor 4 (TLR4) on HEK293 cells expressing human TLR4-MD2-CD14 (human) (UniProt O00206)
Experiment: flow cytometry on cells

Chain of UniProt O00206 (O00206 24-839): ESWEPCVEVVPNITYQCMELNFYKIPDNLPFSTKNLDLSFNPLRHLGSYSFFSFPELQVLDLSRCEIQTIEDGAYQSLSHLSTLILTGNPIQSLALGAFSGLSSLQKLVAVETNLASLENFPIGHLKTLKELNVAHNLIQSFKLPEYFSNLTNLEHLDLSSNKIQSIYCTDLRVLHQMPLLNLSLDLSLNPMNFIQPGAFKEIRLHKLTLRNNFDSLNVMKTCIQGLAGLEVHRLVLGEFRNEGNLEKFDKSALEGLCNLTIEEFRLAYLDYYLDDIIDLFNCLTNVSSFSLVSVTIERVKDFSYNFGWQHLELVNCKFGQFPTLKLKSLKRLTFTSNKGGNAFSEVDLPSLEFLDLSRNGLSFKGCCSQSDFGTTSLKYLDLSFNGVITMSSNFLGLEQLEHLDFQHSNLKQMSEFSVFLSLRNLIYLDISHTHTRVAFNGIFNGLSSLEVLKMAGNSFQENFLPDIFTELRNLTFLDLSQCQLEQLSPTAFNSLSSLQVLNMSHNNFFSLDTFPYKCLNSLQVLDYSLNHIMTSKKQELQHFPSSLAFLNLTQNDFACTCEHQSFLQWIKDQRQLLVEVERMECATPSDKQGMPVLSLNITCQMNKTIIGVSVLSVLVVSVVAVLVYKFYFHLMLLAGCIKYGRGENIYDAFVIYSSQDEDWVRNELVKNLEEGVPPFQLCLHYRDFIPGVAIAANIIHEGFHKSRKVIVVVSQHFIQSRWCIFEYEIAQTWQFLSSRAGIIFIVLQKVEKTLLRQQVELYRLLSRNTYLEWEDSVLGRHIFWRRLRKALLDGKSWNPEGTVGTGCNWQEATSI

Substance	level of fluorescence (percent, flow cytometry) [%]	TLR4-binding capacity (percent, flow cytometry) [%]
hEDA-HPVE7-16 fusion protein (human extra domain A from fibronectin fused to E7 protein from HPV16)	19.5	
hEDA-HPVE7-16/18 fusion protein (human extra domain A from fibronectin fused to E7 proteins from HPV16 and HPV18)		36.9
mEDA-HPVE7-16 fusion protein (extra domain A from murine fibronectin fused to E7 protein from HPV16)		40.2
